Experimental data: paper PMC5125079 (Mycopathologia, 2011)

B1: Cryptococcus neoformans recombinant antiphagocytic protein 1 (rApp1) (natural protein)
chain: MMSSATAELCFDCANCVEMLPKGTTKSVTRPEILERLTRIENHIEVQTALLSTMAASKDYKKKVYTDDDDELEEPEVQLCNMTCEMAALKTYKPQTKVSNHKIVIEAALGRLDHVNGESSIRWAQSVILGLQAAETLQNDKQMMELARVIGCLEACELRWAGDWRAGVASITLKELRTLMI
B2: App1 in total protein from C. neoformans WT (H99) (natural protein)
chain: MMSSATAELCFDCANCVEMLPKGTTKSVTRPEILERLTRIENHIEVQTALLSTMAASKDYKKKVYTDDDDELEEPEVQLCNMTCEMAALKTYKPQTKVSNHKIVIEAALGRLDHVNGESSIRWAQSVILGLQAAETLQNDKQMMELARVIGCLEACELRWAGDWRAGVASITLKELRTLMI

How the values were obtained:
[1] = molecular target: the molecule itself; assay: SDS-PAGE with tryptic digestion and mass spectrometry of the bands
[2] = molecular target: the molecule itself; assay: SDS-PAGE and Western blot

Protein	stoichiometry N [1]	stoichiometry N [2]
B1	2	
B2		2
